Biological target: Omicron RBD (Severe acute respiratory syndrome coronavirus 2, UniProt P0DTC2, E484A/G339D/G446S/G496S/K417N/N440K/N501Y/Q493R/Q498R/S371L/S373P/S375F/S477N/T478K/Y505H)

Substance: R7-02 (LGKGDFRK)
- RBD binding to highly mutated variant (Omicron) versus wild type: most strongly recognized

From patent US20250376490A1, “C[…]-DERIVED PEPTIDE-NUCLEIC ACID HYBRID MOLECULE FOR TREATING INFECTION CAUSED BY MUTATED CORONAVIRUS” (priority 2022, published 2025)
